The series can be described thus: soluble on expression in E. coli; label from the status in PepcDB or PDB records.
Regarding “VRWIGLSTGLVSAMLVAGLVACGSNSPASSPAGPTQGARSIVVFAAASLQSAFTQIGEQFKAGNPGVNVNFAFAGSSELATQLTQGATADVFASADTAQMDSVAKAGLLAGHPTNFATNTMVIVAAAGNPKKIRSFADLTRPGLNVVVCQPSVPCGSATRRIEDATGIHLNPVSEELSVTDVLNKVITGQADAGLVYVSDALSVATKVTCVRFPEAAGVVNVYAIAVLKRTSQPALARQFVAMVTAAAGRRILDQSGFAKP”, the “soluble on expression in E. coli” value is recorded as “not soluble”.

Take “MSDNNQALKDAGLKVTLPRLKILEVLQQPECQHISAEELYKKLIDLGEEIGLATVYRVLNQFDDAGIVTRHHFEGGKSVFELSTQHHHDHLVCLDCGEVIEFSDDVIEQRQKEIAAKYNVQLTNHSLYLYGKCGSDGSCKDNPNAHKPKK”: the “soluble on expression in E. coli” value was “soluble”.

In the case of “MAYDGLFTKKMVESLQFLTTGRVHKINQPDNDTILMVVRQNRQNHQLLLSIHPNFSRLQLTTKKYDNPFNPPMFARVFRKHLEGGIIESIKQIGNDRRIEIDIKSKDEIGDTIYRTVILEIMGKHSNLILVDENRKIIEGFKHLTPNTNHYRTVMPGFNYEAPPTQHKINPYDITGAEVLKYIDFNAGNIAKQLLNQFEGFSPLITNEIVSRRQFMTSSTLPEAFDEVMAETKLPPTPIFHKNHETGKEDFYFIKLNQFNDDTVTYDSLNDLLDRFYDARGERERVKQ”, the “soluble on expression in E. coli” value is “soluble”.

Regarding “MFALHRHFPNPLPSNPSISRHEQKVADHLASIIKESYYGDTSVEESEYLVQEEYGDWEPEVFEPYDCVLPDQDDVLFGEKAVSREELDKAITFYRSGKIGSRPITTMHHSYRWIRTDAHMNKLRKYEKDKKAFQENVRVRLAQLTQRLYEEVKEKLDNGVNLHDSDLMAMALEINTREMKLQNFKASQSWITRWKQSHRIVSRRVTKFVTRKCLINKDAIKKNADDFVKNARTEISNYHPSMVFNCDQTGIQKELYPARSLAFMGEKTVERLAQSKSSLTHSFTFLPMIFLDGSMGPKAFMVIAEPKGQFPPSRPIPNCPNLEVRAGYKTHIMTKQLMCDFFESCVFIPSVPKKLYIMLDSWPAFKDHTTIKNLVPNGHDVVIRNIPEHTTGMIQPLDVYWNAPWKSLIKKFTAYALRTQTDYVIAQRNNAICMVSVLYHQISAEHFRPFLQHCWKKAGYVGAANTSSTPFLTPAQYCIDHGDTVICYHTGCNHLGFIRCARCKIFPARTGKNFSHILIVENVSFPIQYFFLNIAPFILVIP”, the “soluble on expression in E. coli” value is given as “not soluble”.

As to “GPGSMSTGAELLSKALQLQHTRCETYRLWDAKFHCALGGALSASDFETAVNNSIIAAFRCVSLSFRELQCLCRDSTDDACRFLCVWIDELQELEQRHYNISVQFAQLVVQHCTALPLHSSTSQTDMCQTAANEEAENSGVENGSKEVQGTADVSENEKSTVANGERNNSSEVICASLHDRQLCELQRIIPLQAQSVLNYVTCRDDFFPSSSDDECEGDQTGGDGCTSNGADSEPGDLLVPFHHKSGVVATYSPGEVKKRCATFNAAVMPLWRSKLRLRQQLQEKMDELQEEITSASSVFP”, the “soluble on expression in E. coli” value is “soluble”.

Turning to “MTTMTNSLISNSVSSVPESLFSSASIHRPVAINPAMLAQFSINLPVLPFESSASLGTSTTSSSRCSSTESSAAPGKIRRGRPQQEIADGQDAHSQKKRHRRLYARQYRAQMRQKVENVKSLHDEKEQLELEVKALRQAVSGLQQENAQKDFLISILQLNNQINHS”, the “soluble on expression in E. coli” value is “not soluble”.

With “MDFQHWLHEAVNQLRDSDSPRRDAEILLEYVTGKGRTYIMAFGETPLTDVQQQQLADLLQRRKQGEPIAYLTGLREFWSLPLFVSPATLIPRPDTECLVEQALARLPVKTCRILDLGTGTGAIALALACERPDCEVTAVDRMPDAVALAIRNAEHLAIRNVRILQSCWFSALSGQQFDMIVSNPPYIDAQDPHLSEGDVRFEPRSALVADENGMADLTHIIDNARQMLTPGGFLLLEHGWQQGEAVRAVFRRSGYSDVETCRDYGGNERVTCGRFTP”, the “soluble on expression in E. coli” value is on record as “not soluble”.

Take “MKDLIELFWLRYTELQSAVGKNESDKIAVLERELELLLERIVGRKTESSEDIREQFRFAIDLLNHEAEDLGCVQRNSELLRTLVDRYVGMPLKAKVVGDEDEDTLAWHHRHLILDEDMLNDLDEPVVIVSPGYRVSFANALDAFQRNAPEGLIGCHIAELVGVHRFQNILREKLDNCFKGDTSKYTYAEDENGRTVVKSLEMSPCYSSAYKLVGAMVVIREIADRRRRAAG”: the “soluble on expression in E. coli” value is on record as “not soluble”.

Consider “MNAQIKIINTANGYMALCQDTPEDITPAWFSVDFWREKSAVVGSSKGRYTTWFVAFEHSHWVLRHYWRGGMMEKFSKDAYFYTGLENTRAMGELRLLDALYREQFAVPKPIAANIVRDGLFYRADIIIERVDGAEDLVAKLTKGTMTQAQWHALGATIAQFHRRGVYHADLNAKNILWQPQQTDSAQERFYLIDFDRGELKTPNAKWQKANLDRLLRSFNKEQGKQPTLAFTPANWAALLEGYHAVVPKVAAALEHHHHHH”, for which the “soluble on expression in E. coli” value is given as “soluble”.

For “MREYKVVVLGSGGVGKSALTVQFVTGSFIEKYDPTIEDFYRKEIEVDSSPSVLEILDTAGTEQFASMRDLYIKNGQGFILVYSLVNQQSFQDIKPMRDQIIRVKRYERVPMILVGNKVDLEGEREVSYGEGKALAEEWSCPFMETSAKNKASVDELFAEIVRQMNYAAQPNGDEGCCSACVIL”, the “soluble on expression in E. coli” value was “soluble”.

Turning to “MGSDKIHHHHHHMSSSPSTLNFGSMTDVFGFLIEIDKLKSVQRRTKIIGSERHEDSAEHSWHFAVAAMALAPYAGEGVDIQRVIQMALIHDIVEIDAGDVIVYDLSARLAIHDQEVAAAARIFGLLPEPQRQQFQDLWEEYEANETPSAQFALVLDRVMPMLMNLYNGGQSWVENGIRLEQVLDRAEFIATINPELWQYMKQHLEDAKAKGWLL”, the “soluble on expression in E. coli” value was “not soluble”.

Regarding “MTAQDYLNGKLAAANGPLADDWKNLKELWEKKLWHQLTVLTRSLVKKPQFVASTDMHEFYRLFVAEWELRVNPLQLVEICISIAQNIATKDKQKSMEFLSKIGNVINKDKIAVARLHTGEIEARLENKDKNGQIIDLKSIRTQIDSTQHEVDSLVGVTEVHAPFYRVSSLYLREVGDFAGYYREALRYLGVEDANNLTTEQKQVHAVLLGFAALLGENVHNFGELLAHPILKSLEGTRERWIVDVLLAFNSGDLTRFFSLEGDWGGWDDLKKQKDFLTAKIRLMAVMELAVSRPTKARSVSFKEIATKCQIPFDEVEFLVMKALSKDLIRGDINQVEQVVYVTWVQPRVLDNPQIMQMATRISAWRNDVNSMEGIVSKEAREILTQN”, the “soluble on expression in E. coli” value is on record as “not soluble”.

Consider “MQVSDFHFELPDELIARYPKAERTASRLLQLDGNSGQLVDGTFKDVLELVEPGDLLVFNNTRVIPARMFGRKASGGKLEVLVERMLDEHTILAHVRSSKPPKPGTELYLGENDEFHAVMQARHDALFEIRFTAETVVLDILNQIGHMPLPPYIDRPDEEADKERYQTVYNQKPGAVAAPTAGLHFDQALLEQIQAKGVELAYVTLHVGAGTFQPVRVENIHDHHMHAEYVEVPQEVVDAITATKARGGRVVAVGTTSVRSLESAAQDALQKGTELKPFFGDTEIFIFPGYQYQLVDCLITNFHLPESTLIMLVSAFAGYEHTMAAYEHAVKEQYRFFSYGDAMFIRKQMTKA”, for which the “soluble on expression in E. coli” value is listed as “not soluble”.

In the case of “MGSDKIHHHHHHMTTSTGKINLLGLTQPEMEQFFDSIGEKRFRAGQVMKWIHHFGVSDFAAMTNVGKVLREKLEAVAEIRPPEVVSEDISADGTRKWVIRVASGSCVETVYIPTDDRGTLCVSSQAGCALDCSFCSTGKQGFNSNLTAAEVIGQVWLANKSFGTVPAKVDRAITNVVMMGMGEPLLNFDNVIAAMKIMMDDLGYGISKRRVTLSTSGVVPMIDELAKHIDVSLALSLHAPNDELRNKLVPINKKYPLKVLLESCMGYMSTLGGKRVLTVEYTLLKDVNDQPEHAAQMIELLRDVPCKINLIPFNPFPHSGYERPSNNAIRRFQDLLHHGGFNVTTRTTRGDDIDAACGQLVGQVNDRTRRSERYIAVRQLSADVELPDSAASH”, the “soluble on expression in E. coli” value is on record as “not soluble”.

“MEFPDLGAHCSEPSCQRLDFLPLKCDACSGIFCADHVAYAQHHCGSAYQKDIQVPVCPLCNVPVPVARGEPPDRAVGEHIDRDCRSDPAQQKRKIFTNKCERSGCRQREMMKLTCDRCGRNFCIKHRHPLDHECSGEGHQTSRAGLAAISRAQGLASTSTAPSPSRTLPSSSSSSRATPQLPTRTASPVIALQNGLSEDEALQRALELSLAEAKPQVLSSQEEDDLALAQALSASEAEYQQQQAQSRSLKPSNCSLC”: the “soluble on expression in E. coli” value is given as “soluble”.

Values taken from the DeepSol protein solubility set.
